From patent US20110190196A1 (University of California, published 2011)
Like-named read-outs stand apart in the source and are kept apart here.

Assays:
Experiment in all cases: cell-based or functional assay
[1] = molecular target: T1, ATP-binding cassette transporter A1 (ABCA1) (UniProt P41233 1-2261, limits assumed)
[2] = molecular target: T1, ATP-binding cassette transporter A1 …; remark: listed apart in the source
[3] = molecular target: T1, ATP-binding cassette transporter A1 …; remark: listed apart in the source
[4] = molecular target: T1, ATP-binding cassette transporter A1 …; remark: listed apart in the source

T1 sequence (P41233 whole entry): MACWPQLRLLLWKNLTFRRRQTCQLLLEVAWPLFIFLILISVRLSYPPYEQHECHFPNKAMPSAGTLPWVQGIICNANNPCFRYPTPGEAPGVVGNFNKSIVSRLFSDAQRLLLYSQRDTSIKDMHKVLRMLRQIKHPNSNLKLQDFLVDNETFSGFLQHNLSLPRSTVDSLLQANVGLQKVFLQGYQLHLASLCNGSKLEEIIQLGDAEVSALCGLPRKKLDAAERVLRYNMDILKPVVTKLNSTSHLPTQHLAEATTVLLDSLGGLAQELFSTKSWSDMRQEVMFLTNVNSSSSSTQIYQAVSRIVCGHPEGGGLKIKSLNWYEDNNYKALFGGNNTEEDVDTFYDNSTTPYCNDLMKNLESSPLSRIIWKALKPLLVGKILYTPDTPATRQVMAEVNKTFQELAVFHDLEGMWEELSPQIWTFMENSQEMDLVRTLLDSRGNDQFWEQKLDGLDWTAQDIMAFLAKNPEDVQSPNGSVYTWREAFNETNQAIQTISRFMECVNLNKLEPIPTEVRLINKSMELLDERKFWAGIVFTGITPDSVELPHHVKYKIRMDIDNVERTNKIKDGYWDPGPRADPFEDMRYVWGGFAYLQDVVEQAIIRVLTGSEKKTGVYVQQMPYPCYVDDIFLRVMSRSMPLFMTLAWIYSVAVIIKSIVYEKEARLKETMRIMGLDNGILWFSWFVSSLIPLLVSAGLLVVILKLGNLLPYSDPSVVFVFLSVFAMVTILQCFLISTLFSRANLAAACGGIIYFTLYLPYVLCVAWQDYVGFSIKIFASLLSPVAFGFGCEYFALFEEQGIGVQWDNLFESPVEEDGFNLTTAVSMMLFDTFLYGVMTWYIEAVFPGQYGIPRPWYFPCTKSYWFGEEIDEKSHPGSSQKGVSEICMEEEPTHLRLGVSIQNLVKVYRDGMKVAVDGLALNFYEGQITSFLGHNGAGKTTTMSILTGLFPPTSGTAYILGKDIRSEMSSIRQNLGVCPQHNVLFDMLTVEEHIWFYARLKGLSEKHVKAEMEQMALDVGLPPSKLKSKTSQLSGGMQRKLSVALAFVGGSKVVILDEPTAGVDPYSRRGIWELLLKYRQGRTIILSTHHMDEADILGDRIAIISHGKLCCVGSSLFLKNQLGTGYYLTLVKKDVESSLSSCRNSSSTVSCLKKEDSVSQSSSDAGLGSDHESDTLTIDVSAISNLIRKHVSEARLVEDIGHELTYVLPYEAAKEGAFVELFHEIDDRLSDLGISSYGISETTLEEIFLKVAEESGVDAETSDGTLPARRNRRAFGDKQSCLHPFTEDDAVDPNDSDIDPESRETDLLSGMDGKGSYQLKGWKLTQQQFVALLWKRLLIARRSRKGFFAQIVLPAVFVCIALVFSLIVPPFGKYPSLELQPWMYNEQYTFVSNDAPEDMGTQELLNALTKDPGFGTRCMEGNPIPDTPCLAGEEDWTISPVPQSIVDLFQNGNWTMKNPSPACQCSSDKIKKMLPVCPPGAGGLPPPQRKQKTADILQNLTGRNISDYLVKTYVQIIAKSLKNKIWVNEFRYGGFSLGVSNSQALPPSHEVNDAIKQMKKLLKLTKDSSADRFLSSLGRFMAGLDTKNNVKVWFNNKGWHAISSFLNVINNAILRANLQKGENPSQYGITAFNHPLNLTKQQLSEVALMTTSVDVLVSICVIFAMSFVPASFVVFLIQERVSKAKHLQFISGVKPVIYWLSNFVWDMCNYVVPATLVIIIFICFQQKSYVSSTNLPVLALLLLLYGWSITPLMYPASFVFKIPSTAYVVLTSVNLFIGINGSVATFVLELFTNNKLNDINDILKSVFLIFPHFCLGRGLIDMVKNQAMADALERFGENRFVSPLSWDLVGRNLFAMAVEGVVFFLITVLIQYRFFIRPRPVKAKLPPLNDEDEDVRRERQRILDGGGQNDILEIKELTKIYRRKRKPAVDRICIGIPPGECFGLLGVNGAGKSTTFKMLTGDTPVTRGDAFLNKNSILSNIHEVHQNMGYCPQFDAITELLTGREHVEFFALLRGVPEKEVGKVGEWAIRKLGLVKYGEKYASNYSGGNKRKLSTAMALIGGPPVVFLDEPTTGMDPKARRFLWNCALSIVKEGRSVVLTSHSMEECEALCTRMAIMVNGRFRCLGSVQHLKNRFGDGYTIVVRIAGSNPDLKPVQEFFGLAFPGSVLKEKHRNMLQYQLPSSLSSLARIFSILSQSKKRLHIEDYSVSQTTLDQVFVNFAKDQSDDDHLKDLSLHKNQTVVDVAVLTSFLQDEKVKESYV

% cholesterol efflux/4 hours at 0.1 µg/ml [1] [%] | % cholesterol efflux/4 hours at 0.3 µg/ml [1] [%] | % cholesterol efflux/4 hours at 1.0 µg/ml [1] [%] | % cholesterol efflux/4 hours at 3.0 µg/ml [1] [%] | % cholesterol efflux/4 hours at 10 µg/ml [1] [%] | % cholesterol efflux/4 hours at 30 µg/ml [1] [%] | % cholesterol efflux/8 hours, No cAMP [2] [%] | % cholesterol efflux/8 hours, Plus cAMP [2] [%] | % cholesterol efflux/4 hours at 0.1 µg/ml [3] [%] | % cholesterol efflux/4 hours at 0.3 µg/ml [3] [%] | % cholesterol efflux/4 hours at 1.0 µg/ml [3] [%] | % cholesterol efflux/4 hours at 3.0 µg/ml [3] [%] | % cholesterol efflux/4 hours at 10 µg/ml [3] [%] | % cholesterol efflux/4 hours at 30 µg/ml [3] [%] | % cholesterol efflux/8 hours, No cAMP [4] [%] | % cholesterol efflux/8 hours, Plus cAMP [4] [%] | Binder
0.08 | 0.43 | 1.81 | 3.48 | 3.31 | 4.35 | 1.81 | 4.83 |  |  |  |  |  |  |  |  | DLRDKLDAWLDLLRDLLDRL [N1154-9]
 |  |  |  |  |  |  |  | 0 | 0.19 | 1.31 | 2.66 | 2.12 | 2.21 | 1.61 | 3.29 | DLRDKLDAWFDLFRDFLDRF [N1154-3]
0 | 0.48 | 1.51 | 3.41 | 2.99 | 3.02 | 1.31 | 4.38 |  |  |  |  |  |  |  |  | ELRDKLEAWLDLLRELLERL [N1154-8]
 |  |  |  |  |  |  |  | 0 | 1.3 | 3.51 | 4.14 | 5.02 | 3.65 | 2.59 | 11.4 | ELRDRLEAWFDLFREFLERF [N1154-4]
0.58 | 1.34 | 2.56 | 4.84 | 4.17 | 5.55 | 4.2 | 9.04 |  |  |  |  |  |  |  |  | DLRDRLDAWLDLLRDLLDRL [N1154-11]
 |  |  |  |  |  |  |  | 0.03 | 0.51 | 2.17 | 2.59 | 2.14 | 1.66 | 1.47 | 3 | ELRDKLEAWFDLFREFLERF [N1154-2]
 |  |  |  |  |  |  |  | 0.1 | 0.41 | 2.06 | 5.11 | 4.44 | 3.67 | 1.85 | 5.2 | ELRERLEAWFELFREFLERF [N1154-1]
0.23 | 0.83 | 2.26 | 4.14 | 3.24 | 3.28 | 1.23 | 4.14 |  |  |  |  |  |  |  |  | ELRERLEAWLELLRELLERL [N1154-7]
0.58 | 1 | 2.12 | 5.25 | 4.15 | 3.7 | 2.66 | 8.25 |  |  |  |  |  |  |  |  | ELRDRLEAWLDLLRELLERL [N1154-10]
